# Legend:
# [1] = molecular target: T1, recombinant TMEFF1 (Homo sapiens, UniProt Q8IYR6); experiment: Binding competition binning (Octet); details: seven antibodies, 3 bins
# T1 construct: generated to secrete the ECD from CHO cells to assist with biophysical evaluations; His tag (C); made in house; host or cells: CHO (ExpiCHO)
# T1 sequence (Q8IYR6 40-330 limits assumed): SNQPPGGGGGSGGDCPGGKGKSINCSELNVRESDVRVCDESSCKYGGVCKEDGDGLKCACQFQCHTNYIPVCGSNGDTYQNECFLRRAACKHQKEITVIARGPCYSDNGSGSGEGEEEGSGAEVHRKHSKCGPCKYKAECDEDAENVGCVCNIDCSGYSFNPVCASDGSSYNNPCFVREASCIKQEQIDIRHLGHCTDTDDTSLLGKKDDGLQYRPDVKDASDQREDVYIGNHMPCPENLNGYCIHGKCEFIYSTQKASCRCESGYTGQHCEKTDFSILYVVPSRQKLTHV
# Experimental: Binding competition among different antibodies was determined using a real-time, interferometry assay on an Octet Red™ instrument with Protein A-conjugated biosensors. To assess whether two antibodies competed for binding to a recombinant TMEFF1 protein, the assay was performed as follows. Protein A biosensors were first submerged into wells containing 10 ug/mL of individual monoclonal antibodies for 5 minutes. Following the capture step, the biosensors were dipped briefly (15 seconds) into buffer and then any unoccupied sites on the biosensor were saturated by submerging them for 5 minutes into wells containing 100 ug/mL of an irrelevant monoclonal antibody. The Octet biosensors were then dipped briefly (15 seconds) in buffer before immersion for 1 minute into wells containing recombinant TMEFF1. The biosensors were dipped briefly (15 seconds) in buffer before immersion for 1 minute into wells containing a second recombinant antibody.
# For the control case where the second antibody was the same as the first, there was no increase in signal, because there was no additional binding to the recombinant target.
# For the control case where buffer was used instead of the first antibody, no recombinant target bound the non-quenching antibody on the biosensor and no second antibody bound the biosensor.
# Competition binning using Octet™ was done with seven antibodies and 3 separate bins were identified.
# [2] = system: hTMEFF1-ECD recombinant deletion mutants; experiment: Binding domain determination with hTMEFF1-ECD deletion mutants (Octet); parameters: species or system human; key: FS1—follistatin domain 1; FS2—follistatin domain 2; details: full length TMEFF1 ECD vs ΔFS1, ΔFS2, ΔFS1&FS2
# Text: TMEFF1 recombinant proteins expressing 3 different deletion mutants, AFS1 (AFollistatin Domain 1), AFS2 (AFollistatin Domain 2) or AFS1&FS2 were used to identify binding domains among different antibodes using an Octet Red instrument with Anti-Penta-His (HIS 1K) biosensors. Expression of the 3 deletion mutants was confirmed by WB analysis. 100 ngs of purified TMEFF1 ECD was run along with unpurified supernatant of transfected CHO cells with the different deletion mutants. HIS 1K biosensors were loaded by submerging the biosensors into wells containing 10 ug/ml of full length TMEFF1 or one of 3 different deletion mutants (AFS1, AFS2 or AFS1&FS2) for 60 seconds. Following the loading step, the biosensors were then dipped for 30 seconds in PBS before immersion for 30 seconds in 200 ul of unpurified recombinant antibodies for 30 seconds. The biosensors were then dipped briefly (30 seconds) in PBS to observe any dissociation. Samples were determined to show binding or no binding by comparing to a control well that contained no recombinant antibody. Differential binding to the deletion mutants allowed for determination of binding sites on TMEFF1 recombinant protein. For cases where the antibody bound all 3 recombinant proteins, the binding is outside of the deleted domains. For the case where binding is observed only on full length TMEFF1 and AFS2, the antibody is binding in the ΔFS1 domain.
# 26 of the identified antibodies were checked for epitope domain binding by Octet™ using the hTMEFF1-ECD recombinant deletion mutants (see Table 7, below).
# [3] = system: 293-hTMEFF1 cells; experiment: Flow based antibody internalization assay; assay type: cell-based, human; details: 293-hTMEFF1 fixed with PFA, antibody 1 ug/ml, 30-120 min
# Experimental: For Flow based internalization assay, 293-hTMEFF1 cells were collected and either fixed with 4% paraformaldehyde (PFA) for 20 minutes at 37° C. or kept live on ice. Cells were then incubated on ice for 40 minutes with anti-TMEFF1 antibody at 1 ug/ml, washed 2× with ice cold PBS, resuspended in complete warm media and incubated at 37° C. for 30, 60 or 120 minutes. Live cells were then fixed at those time points, washed 2× with PBS and labeled with fluorescent conjugated secondary antibody for 30 minutes on ice.
# Antibody mediated TMEFF1 internalization was evaluated by Flow cytometry with five human anti-TMEFF1 antibodies in 293-hTMEFF1 cells. Fixed cells were treated with the antibody as a control of antibody loss due to detachment rather than internalization which would result in reduce signal. Thus a constant signal over time in fixed cells and a loss of signal in live cells would indicate antibody internalization. […] In live cells, it was observed that most antibodies show about a 50% internalization by 30 min of treatment (FIG. 1B).
Molecule,Competition binning (epitope bin) [1],Binding region (epitope domain binding) [2],Cell surface binding in fixed cells over the duration of the assay [3]
"24F10: human anti-TMEFF1 IgG1 antibody; VH SEQ ID NO: 33, VL SEQ ID NO: 36 (antibody, V domains shown) VH: QVQLVESGGGVVQPGRSLRLSCAASGFTFSSYGMHWVRQAPGKGLEWVAVIWYDGSDKYYTDSVKGRFTISRDNSKNTLYLQMNSLRAEDTAVYYCARESMVRGIVITFFDYWGQGTLVTVSS VL: EIVMTQSPATLSVSPGERATLSCRASQSVSSNLAWYQQKPGQAPRLLIYGASTRATGIPARFSGSGSGTEFTLTISSLQSEDFAVYSCQHYNNWPPTFGGGTKVEIK",compete with each other and bind FS1,FS1,consistent cell surface binding in fix cells
"36H6: human anti-TMEFF1 IgG1 antibody; VH SEQ ID NO: 43, VL SEQ ID NO: 47 (antibody, V domains shown) VH: QVQLVESGGGVVQPGRSLRLSCAASGFTFSDYGMHWVRQAPGKGLEWVAVIWYEGGNKYYTDSVKGRFTISRDNSKNTLYLQMNSLRAEDTAVYYCARILLWFGESYGMDVWGQGTTVTVSS VL: DIQMTQSPSSLSASVGDRVTITCRASQGISNYLAWYQQKPGKVPKLLIYAASTLQSGVPSRFSGSGSGTDFTLTISSLQPEDVATYYCQKYNNAPWTFGQGTKVEIK",compete with each other and bind FS1,FS1,consistent cell surface binding in fix cells
"31B7: human anti-TMEFF1 IgG1 antibody; VH SEQ ID NO: 17, VL SEQ ID NO: 21 (antibody, V domains shown) VH: QVQLVESGGGVVQPGRSLRLSCAASGFTFSSYGMHWVRQAPGKGLEWVAVIWYNGINKYYADSVKGRFTISRDASKNTLYLQMNSLRAEDTAVYYCAREGLLWFGGMDVWGQGTTVTVSS VL: EIVLTQSPLSLPVTPGEPASISCRSSQSLLHSNGYNYLHWYLQKPGQSPQLLIYLGSNRASGVPDRFSGSRSGTDFTLKIIRVEAEDVGVYYCMQALQTPYTFGQGTKLEIK",bind a region different from FS1 or FS2 and compete with each other,other,consistent cell surface binding in fix cells
